The values that follow come from US20240279344A1 (CDR LIFE, published 2024).

B1: M0708 (Fab, V domains shown)
VH: QSVEESGGRLVTPGTPLTLTCTVSGFSLSNYAMSWVRQAPGKGLEYIGIVSSGGTTYYASWAKGRFTISKTSTTVDLKITSPTTEDTATYFCAKDLYYGPTTYSAFNLWGQGTLVTVSS
VL: SELVLTQPQSVSGSLGQTVSISCKRARNNIEDYYVHWYQQHPGRSPTIVIHKDDQRPSGVPDRFSGSIDSTSNSASLTITGLLAEDEADYFCQSFDNNANPVFGGGTQLTVTG
B2: M0707 (Fab, V domains shown)
VH: QQQLEESGGGLVTPGTPLTLTCTVSGIDLSSYAMGWVRQAPGKGLEWIGTINDGGSAFYASWVKGRFTISRTSTTVDLKITSPTAEDTATYFCAKTYGTNGDVYWGYFNLWGQGTLVTVSS
VL: ELVMTQTPASVSEPVGGTVTIKCQASQSIGSNLAWYQQKPGQPPKLLIYYESILASGVPSRFSGSGSGTEYTLTISGAQADDAATYYCQQGYSSSNILNAFGGGTEVVVKR
B3: M0705 (Fab, V domains shown)
VH: QQQLVESGGRLVTPGTPLTLTCTASGIDLNSNAMSWVRQGPGKGLEWIGDIWSGGYTDYASWAKGRFTISKTSTTVDLKMTSLTAADTATYFCARDRLAGDGVVDYDLWGQGTLVTVSS
VL: ELDMTQTPASVEVAVGGTVTIKCQASQNIYSNLAWYQQKPGQRPKLLIYGASTLASGVPSRFKGSGSGTEYTLTINGVQAADAATYYCQQGFSSSNVDNVFGGGTEVVVKR
B4: M0702 (Fab, V domains shown)
VH: QEQLEESGGGLVTPGTPLTLTCTASGFSLSSYAMIWVRQAPGKGLEWIGTINDGGTAFYANWVKGRFTISRTSTTVDLKMTSPTTEDTATYFCARAYGSNGDVYWGYVNLWGQGTLVTVSS
VL: ELVMTQTPASVSEPVGGTVTIKCQASQSIGSNLAWYQQKPGQPPKLLIYAAANLASGVSSRFKGSRSGTEYTLTISGVQAADAATYYCQQGYSSSNVANVFGGGTELEILR
B5: M0738 (VHH)
VHH: EVQLVESGGGLVEAGVSLRLSCAASGRTSENFAMGWFRQAPGNEREFVAAITRNHRTFYKESVKDRFTISRDDAKNTVYLEMNNLVPDDTAVYTCAAKFDPYASASSYYTGYYYWGQGTQVTVSS
notes: Llama-derived VHH
B6: M0751 (VHH)
VHH: EVQLVESGGGLVQPGGSLRLSCAASGFSFRLYTMSWVRQAPGKGLEWVSSISSGGGVVTTYADSAKGRFTISRDNDKNTLTLQMNSLKPEDTAVYYCAQGERRGQGTQVTVSS
notes: Llama-derived VHH
B7: M0863 scFv (scFv)
scFv: PEQLMESGGGLVTPGGVLTLTCTASGFSFSSYGVNWVRQAPGKGLEWIGFIFGDGTTYYANWAKGRFTISKTSTTVDLKMTSPTTEDTATYFCARDGYGGYDYIINLWGQGTLVTVSSGGGGSGGGGSGGGGSGGGGASAQVLTQTPASVSAAVGGTVSISCQSSQSVVNNNWLAWYQQKPGQPPKLLIYKASTLESGVPSRFKGSGSGTQFTLTISGVQADDAATYYCQGAYSGNIYYNAFGGGTEVVVK
notes: Rabbit scFv identified by phage display
B8: M0740 (VHH)
VHH: EVQLVESGGGLVQPGGSLRLSCLASGFPFSMYTMNWVRQAPGKGLEWVSAISSGGAVTTYADSVKGRFTISRDNAKNTLYLQMSSLKPEDTAVYYCESSNNRGQGTQVTVSS
notes: Llama-derived VHH
B9: M0746 (VHH)
VHH: EVQLVESGGGLVQAGGSLRLSCAASGRTFSNNAMGWFRQGPDQEREFVAAISRSGGGSGGAPLYADSVKGRFTISRDNAKNTMSLSMNSLSPEDTAVYYCAARSLYKVAGSDDLSDYAYWGQGTQVTVSS
notes: Llama-derived VHH
B10: M0864 scFv (scFv)
scFv: QSVKESGGGLVTPGTPLTLTCTVSGFSLSTYAISWVRQAPGKGLEWIGFIDTVDSAYYASWAKGRFTISKTSSTTVDLKMTSPTTEDTATYFCAKLRYGDYGDYTLWGQGTLVTVSSGGGGSGGGGSGGGGSGGGGASELVMTQTPSPVSGAVGGTVTIKCQASQNIYSYLAWYQQKPGQPPKLLIYKASTLASGVPSRVKGSGSGTEYTLTISGVQAADAATYYCQCTYYDSNTFGGGTEVVVK
notes: as for B7
B11: M0734 (VHH)
VHH: EVQLVESGGGLVQAGGSLRVSCAASGLTFSNYAMGWFQQAPGKEREFVAGISWSGVSTYYADFVKGRFTISRDNAKNTVYLQMNSLKPEDTAVYYCAADNRRYSRGTSISTWRSDYDYWGQGTQVTVSS
notes: Llama-derived VHH
B12: M0749 (VHH)
VHH: EVQLVESGGGSVQPGGSLRLSCAASGFTFSRSTMSWVRQAPGKEIEWVSSVSGSGGVTTYADSVKGRFTISRDNAKNTLYLQMSSLKPEDTAVYYCGNSNARGQGTQVTVSS
notes: Llama-derived VHH
B13: M0744 (VHH)
VHH: EVQLVESGGGLVQPGGSLRLSCAASGSIFSINDMDWYRQAPGKQRELVAAITRGGSTNYADSVKGRFTISRDNAKNTVYLQMNSLKPEDTAVYYCNAEVSTETTGWRTWRDYWGQGTQVTVSS
notes: Llama-derived VHH
B14: M0736 (VHH)
VHH: EVQLVESGGGLVQAGGSLRLSCTVSGRTSSAFAMGWFRQAPGKEREFVAAINLTGGTTNYAESVKGRFTISRDNAKNTGYLGMSSLKPEDTAVYYCAGRNRWSEGREVAPSSYYYWGQGTQVTVSS
notes: Llama-derived VHH
B15: M0741 (VHH)
VHH: EVQLVESGGGAVQAGGSQRLSCTVSGRPFTKYAMGWFRQPPEKEREFVATSTWEGSTYYADSVKGRFTISRDNANNIIDLQMNTLKPEDTAVYFCAASNTYNADTTYYAKSTAFNFWGQGTQVTVSS
notes: Llama-derived VHH
B16: M0735 (VHH)
VHH: EVQLVESGGGLVQAGGSLRLSCAASGLTFRRYTMGWFRQAPGKEREFVAAIVSSDSTNYADSVKGRFTISRDNAKNTVYLEMNSLKPDDTCVYYCAARNSLSLYVSNLGSRYDYWGQGTQVTVSS
notes: Llama-derived VHH
B17: M0862 scFv (scFv)
scFv: PEQLMESGGGLVTPGGVLTLTCTASGFSFSSYGVNWVRQAPGKGLEWIGFIFGDGTTYYANWAKGRFTISKTSTTVDLKMTSPTTEDTATYFCARDGYGGYDYIINLWGQGTLVTVSSGGGGSGGGGSGGGGSGGGGASAQVLTQTPASVSAAVGGTVSISCQSSQSVVNNNWLAWYQQKPGQPPKLLIYKASTLESGVPSRFKGSGSGTQFTLTISGVQADDAATYYCLGEFSCSSADCHAFGGGTELEIL
notes: as for B7
B18: M0745 (VHH)
VHH: EVQLVESGGGLVQAGGSLRLSCAVSGRRVSIYGMGWYRLAPGKQREMVASITSGGITTYADSVKGRFSISRDNAKNTVYLQMNSLKPEDTAVYYCNYHDYRVQGESWGQGTQVTVSS
notes: Llama-derived VHH
B19: M0737 (VHH)
VHH: EVQLVESGGGLVQRGDSRRLSCAASGRPFSSFAMGWFRQAPGKEREFVAGISRSAGNTDYSDSVKGRFTISRDNAKNTVYLELNNLTPEDTAVYYCAAQIAIGTGSVFQSNTQYMYWGQGIQVTVSS
notes: Llama-derived VHH
B20: M0752 (VHH)
VHH: EVQLVESGGGLVQPGGSLRLSCAASGFTFSNYGMSWVRQAPGKGLEWVSSIGSGGRITTYLDSVKGRFTISRDNAKNTLYLQMNSLKSEDTAVYYCESGGYRGQGTQVTVSS
notes: Llama-derived VHH
B21: M0750 (VHH)
VHH: MEVQLVESGGGLVQPGGSLRLSCAASGFTFSRYTMSWVRQAPGEGLEWVSSIGSGGGPTTYANSVKGRFTVSRDNAKNTLWLQMNNLKPEDTALYYCQGGGNRGQGAQVTVSS
notes: Llama-derived VHH
B22: M0748 (VHH)
VHH: EVQLVESGGGAVQAGGSLRLSCTVSGRPFTKYAWGWFRQPPEKEREFVATSTWDVGSTYYADSAKGRFTISRDNANNIIDLQMNSLKPEDTAVYYCAASNTYSSDITYYAKPMAFNFWGQGTQVTVSS
notes: Llama-derived VHH
B23: M0866 scFv (scFv)
scFv: QSVKESGGRLVTPGTPLTLTCTASGFTISSSAISWVRQAPGKGLEYIGIIRSGGTTDYASWAKGRFAISKTSTTVDLKITSPTTEDTATYFCARDPPYITSTYFDLWGQGTLVTVSSGGGGSGGGGSGGGGSGGGGASELVLTQPQSVSGSLGQTVSISCKRARDSVESYDVHWYQQHPGKTPTIVIYKDDQRPSGVPDRFSGSIDSTSNSASLTITGLLAEDEADYFCQSFDGDAVVFGGGTQLTVTG
notes: as for B7
B24: M0865 scFv (scFv)
scFv: PAALMESGGRLVTPGTPLTLTCTVSGIDLSTFAMTWVRQAPGKGLEWLGIINTGGSAYYTSWAKGRFTISRTSTTVDLKITSPTTEDTATYFCARGDWSSATDLWGQGTLVTISSGGGGSGGGGSGGGGSGGGGASDPDMTQTPSSVSAAVGGTVTINCQASQSVYDNKVLAWYRQKPGQPPKLLIYKASTLASGVPSRFKGRGSGTQFTLTISGVQADDAATYYCLGEFSCSSADCHAFGGGTELEIL
notes: as for B7

The first assay addresses T1, HLA-A2/MAGE-A4 complex, recombinant (HLA-A*02:01 extracellular domain, human b2m, MAGE-A4 peptide 230-239 …) (human, UniProt P04439 25-299 at identity 0.94); P61769 21-119).
T1 construct: also called MAGE-A4 pMHC; MAGE-A4/HLA-A2 complex
As to the kind of experiment: direct ELISA, plate coated with HLA-A2/MAGE-A4 complex, serial dilution of the antibody. The protocol: All available hits were evaluated for their ability to bind MAGE-A4/HLA-A2 complex and a control peptide/HLA-A2 complex in a direct binding ELISA assay. […] Briefly, 96 well ELISA plates were coated with purified human MAGE-A4/HLA-A2 complex or control HLA-A2 complex. Serial dilutions of antibody molecules were added to the plate and detected by an anti-kappa light chain-HRP (Invitrogen) or a purified rabbit anti-VHH (QVQ) followed by goat anti-rabbit IgG(H+L) HRP (Southern Biotech). […] 5B.
For orientation: An ELISA detects its analyte on a solid surface through an enzyme-linked reagent.
With B1, the binding result is reported as “binds”.

B2: the binding result is recorded as “binds”.

For the molecule B3, the binding result is on record as “binds”.

What is called EC50 (read off the curve) is the concentration needed to bring the measured effect to its halfway point. B4: the “EC50 (read off the curve)” value is about 0.6 nM.

The target of another assay is T1, HLA-A2/MAGE-A4 complex, recombinant …. As to the kind of experiment: phage display biopanning and screening.
As to B5, the binding result is “binds”.

For the molecule B6, the binding result was “binds”.

In the case of B7, the binding result is reported as “binds”.

As to B8, the binding result is “binds”.

In the case of B9, the binding result is listed as “binds”.

For the molecule B10, the binding result is recorded as “binds”.

Take B11: the binding result is “binds”.

Consider B12, for which the binding result is recorded as “binds”.

For B13, the binding result is on record as “binds”.

Take B14: the binding result was “binds”.

In the case of B15, the binding result is recorded as “binds”.

As to B16, the binding result is recorded as “binds”.

Consider B17, for which the binding result was “binds”.

Consider B18, for which the binding result is given as “binds”.

In the case of B19, the binding result is given as “binds”.

As for B20, the binding result is “binds”.

Turning to B21, the binding result was “binds”.

Turning to B22, the binding result was “binds”.

Take B23: the binding result is “binds”.

As to B24, the binding result is “binds”.
